Laboratory results from patent publication US7179646B2, “Gene expression using T cell factor responsive element” (Innovata PLC, priority 2000, dated 2007).

Experiments:
293 and PerC6 cells = assay: LacZ expression in adenovirus helper cell lines; type: cell-based, human
Procedure: (§1) Expression of β-galactosidase was measured for quantitative graphical presentation by means of the Galacto-Light system (Tropix Inc, Applied Biosystems, Foster City, Calif., U.S.A.)

[1] = tested on: primary human hepatocytes, dermal fibroblasts and endothelial cells; assay: Beta-galactosidase expression in infected cultured primary human cells; type: cell-based; conditions: 48 h after infection
Procedure: Primary human dermal fibroblasts were isolated from punch biopsy samples from healthy volunteers and maintained as above. HUVEC cells were obtained from Promocell (Heidelberg, Germany) and maintained in Endothelial Growth Medium plus Supplement Mix (Promocell). Primary hepatocytes were maintained in Williams medium with added antibiotics, glutamine, insulin and hydrocortisone.
After washing cells with PBS, cells were fixed in 0.05% glutaraldehyde in PBS for 10 min at RT. Following further washing in PBS, cells were incubated cells the following solution and incubated at 37° C. X-gal solution: 400 μl 500 mM K4Fe(CN)6, 400 μl 500 mM K3Fe(CN)6, 100 μl 2 mM MgCl2, 250 μl 40 mg/ml X-Gal in DMF and 8.85 ml PBS.
as §1

[2] = tested on: freshly excised colorectal cancer tissue and attached liver tissue; assay: Ex vivo transduction of freshly excised colorectal tumour samples, X-gal staining; set-up: species or system human
Procedure: Freshly excised tumour tissue was extensively washed (at least 10 minutes duration) under aseptic conditions with 20 ml of Earl's MEM containing 10% FCS, 150 μg/ml penicillin, 250 μg/ml streptomycin, 10 μg/ml tetracycline, 100 μg/ml amikacin, 150 µg/ml chloramphenicol and 100 μg/ml gentamycin and stored at 4° C. overnight in medium containing 10% FCS. After removal of fat and grossly and suspected necrotic tissue, 2–3 mm^3 samples were prepared and placed individually into wells of a 96-well plate. Samples (in quadruplicate) were incubated in 150 μl of serum-free medium containing, 1.0×10^10 virus particles or in medium alone for 4 h in a CO2 incubator. The medium was then replaced with EMEM containing 10% FCS and the samples incubated for a further 44 h to allow gene expression to proceed. β-galactosidase expression was visualised after fixation of the tumour samples in 2% paraformaldehyde/PBS for 2 h at 4° C. and washing with PBS by overnight incubation in X-gal staining solution at 37° C.

HeLa cells = assay: Transient transfection luciferase reporter assay in HeLa; type: cell-based, human
Procedure: (§2) HepG2, SW480 and HeLa were seeded the day before transfection at densities of 2.5×10^5, 1.5×10^5 and 6.0×10^4 cells per 6-well respectively. The next day, a mixture of CL22 peptide ([…] (SEQ ID NO:15) (described in International Patent Application WO 98/35984)) and plasmid DNA (2:1 ratio, μg:μg) was prepared in a final volume of 100 μl in HBS (10 mM Hepes pH 7.4, 150 mM NaCl; Sigma) and incubated at RT for 30–45 min before addition of 0.9 ml of “RAC” solution (0.1% human albumin (BPL, UK), 120 μM chloroquine (Sigma) in RPMI medium (Sigma). The transfection solution was then added to cells after washing them once with PBS and incubated with the cells for 4–5 hours before replacement with 2 ml of fresh complete medium. After two days, cells were washed once with PBS and then incubated for 10 min at RT in 200 μl lysis buffer (10 mM sodium phosphate pH 7.8, 8 mM MgCl2, 1 mM EDTA pH 8.0, 1% Triton X-100 and 15% glycerol). After centrifugation, an aliquot of the supernatant was assayed for luciferase activity with luciferase assay buffer (0.1 mM luciferin, 0.44 mM ATP in lysis buffer) using a luminometer (Lumat LB 9501, Berthold, Germany). Activity was normalised using the protein content of each sample (BCA, Pierce).

HepG2 cells = assay: Transient transfection luciferase reporter assay in HepG2; type: cell-based, human
Procedure: as §2

SW480 cells = assay: Transient transfection luciferase reporter assay in SW480; type: cell-based, human
Procedure: as §2

Molecule | LacZ expression compared to CMV promoter (293 and PerC6 cells; 293 and PerC6, MOI 100, 30 h post-infection) | fold more active in PerC6 than in 293 cells (293 and PerC6 cells; PerC6 vs 293) | beta-galactosidase expression [1] | colorectal metastases permissive for high-level expression ([2]; 5 metastases examined) | primaries weakly or non-permissive for promoter activity ([2]; of 10 primaries) | luciferase reporter activity in HeLa (HeLa cells; Example 6) | luciferase activity compared to SV40 promoter alone (HeLa cells; beta-catenin not deregulated) | activity relative to CMV enhancer/promoter (HepG2 cells) | induction ratio (HepG2 cells; relative to SV40 promoter set as 1) | activity relative to CMV enhancer/promoter (SW480 cells; SW480) | luciferase reporter activity in SW480 (SW480 cells; SW480, Example 6) | induction ratio (SW480 cells; SW480, relative to SV40 promoter set as 1) | inducibility in SW480 compared to HeLa (SW480 cells; SW480 vs HeLa) | level of reporter gene expression among Tcf-E1BTATA arrangements (SW480 cells; SW480, E1BTATA combinations)
5merTcf-SV40: Artificial promoter of 5 active Tcf sites upstream of the basal SV40 promoter; renamed CTP1 (nucleic acid) antisense: TTGAGATGCAGATCGCAGATCTGATAAAGGTGCATTTAGAGATCAAAGGTAGGACTCTTGATCAAAGGACTGAATTCCTTGATCAAAGGTGCATTTAGAGATCAAAGGTAGGACTCTTTGATCAAAGGGACTAGTAAGCTTGCTAGCACGCGTAAGAGCTCGGTACC | significantly lower than that driven by the CMV promoter | approximately 3 fold | very low levels of beta-galactosidase expression | all 5 colorectal metastases examined were permissive | 3 | shows a background activity in HeLa cells | not more active than the SV40 promoter alone | even more active than CMV | 18 | about 80% | highly active in SW480, here comparable to CMV | 44.2 | 30–60 fold | –
TcfC-E1BTATA: Luciferase reporter with TcfC arrangement of 5 Tcf sites and E1BTATA box (nucleic acid) antisense: TACCAACAGTACCGGAATGCCAAGCTAGCTTTTTAGCTTCCTTAGCTCCTGAAAATCTCGCCAAGCTGATGAATTCGAGCTGGCGCATTATATACCCTCTGATAAAGGTGCATTTAGAGATCAAAGGTATGATCAAAGGACTTGATCAAAGGTGAGATCAAAGGTATTGATCAAAGGACTAGAGCTTACTTAGATCGCAGATCTCGAGCCCGGGCTAGCACGCGTAAGAGCTCGGTACCTATCG | – | – | – | – | – | – | – | – | – | – | – | – | – | highest level of reporter gene expression
